The source of these data is a protein production outcome set (Wang et al. 2014).

This series is described as follows: label from the status in PepcDB records.
Turning to “MSLELEWMSIDDLKLPSNVIDIIKNRGIKKLNPPQTEAVKKGLLDGNRLLLTSPTGSGKTLIAEMGIISFLLKNGGKAIYVTPLRALTNEKYLTFKDWESIGFKVAMTSGDYDTDDAWLKNYDIIITTYEKLDSLWRHRPDWLNEANYFVLDELHYLNDPERGPVVESVTIRAKRRNLLALSATISNYKQIAKWLGAEPVATNWRPVPLMEGVMYPERKKKEYTILFRDNTARKVHGDDAIIAYTLDSLSKNGQVLVFRNSRKMAESTALKIANYMNFVSLDEKAISEILKQLDDIEEGGSDEKELLKSLISKGVAYHHAGLSKALRDIIEESFRKRKIKVIVATPTLAAGVNLPARTVIIGDIYRFNRKIVGYYDEIPVMEYKQMSGRAGRPGFDQIGESIIVVRDKEDVDRVFKKYILSDVEPIESKLGSERAFYTFLLGILSAEGSLSEKQLEAFAYESLLAKSVVDVYFDRAIRWLSEHSFIREENNTFTLTNFGKRVADLYINPFTADIIRKGLEGYKASCEIAYLHLLAFTPDGPLVSVGRNEEEELIELLEDLECELLVEEPYEEDEYSLYLNALKVALIMKDWIDEVDEDTILGKYNIGSGDLRNIVETMDWLTYSAYHLSKELRLDDHSDKLRILNLRVTDGVKEELLELVQIGGVGRKRARLLYNNGIKGLGDVVMNPDRVRNLLGQKLGERVVQEAARLLNRFH”, the protein production result is listed as “failed”. The value for “MMNNVKYLSFALILAFSACKSGSASSQEPSEKQDTVKIFNLPQIPVVLNTVEQRTDYMVKHYWDRFDFSDTTYINQAEVPEQAWVDYCDLLEHVPLPVAQTAMKETFNRAEKNRKMLHFFEELADKYLYDPNSPMRNEEFYIPVLEALIASPALDETAKIRPQARLELAQKNRLGTKALNFTYTLDSGVKGTLYQFPAEYTLLFINNPGCHACAEMIEGLKASPVINGFTAAKKLKVLSIYPDEELDEWKKHRNDFAKEWTNGYDKELVIKNKNLYDLRAIPTLYLLDKNKTVLLKDATLQKVEQYLAERG” was “failed”; that for “MSTTDDSYIVVNNEAAGKVSLKEKWWHVLDTYKVGIIPVPLFVLAGVLIGIDCLSGKLPSDIVVMVATLAFFGFACGEFGKRLPIIGKMGAAAICATFIPSAMVHYGLLPDVVVESTTKFYKSTNILYLYICCIIVGSIMSMNRQTLIQGFMRIFFPMLCGEIAGMLVGMGVGIALGLDPFQIFFFLILPIMAGGVGEGAIPLSIGYATILHMDQGVALGRVLPIVMLGSLTAIILAGVLNQLGKRYPHLTGEGELMPNKGNNLGGSESSAPASAFSGKADVTTIASGALLAILLYMVGMLGHKMIGLPAPVGMLFAAVVVKLAHGVSPKMLEGSQVVYKFFQTSVTYPILFAVGVAITPWQELVNAFTIQNLLVIISTVVTLVGTGFLVGRKIGMHPIDVAIISCCQSGQGGTGDVAILTAGNRMMLMPFAQIATRIGGAINVSISLLVLANFLV” was “failed”. Turning to “MVRVRFAPSPTGFLHVGGARTALFNFLFARKEKGKFILRIEDTDLERSEREYEEKLMESLRWLGLLWDEGPDVGGDHGPYRQSERVEIYREHAERLVKEGKAYYVYAYPEEIEEMREKLLSEGKAPHYSQEMFEKFDTPERRREYEEKGLRPAVFFKMPRKDYVLNDVVKGEVVFKTGAIGDFVIMRSNGLPTYNFACVVDDMLMEITHVIRGDDHLSNTLRQLALYEAFEKAPPVFAHVSTILGPDGKKLSKRHGATSVEAFRDMGYLPEALVNYLALLGWSHPEGKELLTLEELISSFSLDRLSPNPAIFDPQKLKWMNGYYLRNMPIEKLAELAKPFFEKAGIKIIDEEYFKKVLEITKERVEVLSEFPEESRFFFEDPAPVEIPEEMKEVFSQLKEELQNVRWTMEEITPVFKKVLKQHGVKPKEFYMTLRRVLTGREEGPELVNIIPLLGKEIFLRRIERSLGG”, the protein production result is given as “not failed”. As for “MLNIGVKDVKTNLLTPVVTLSIFGSTGAVLPALAIPVITPTQQDIQPALPEPSPLPPTSPPVLEPPPSPPSPAPESENVLIPVQKIIVEGSTLFGPAEFDPILKPLEGQQVTLAELQRATDAITKLYLEGGYLTSRAVLNEQVVRDGVIRIQVLEGRLEDIRIEGNKGIIQRYIRSRIALGAGVPLNGNRLEEQLRLLRTDPLFANLSASLRPGTTPQESVLVVRVVPARWLNAAFGLDNHTSPAIAPNRATAFLGYNNLSGRGDSVYGSYAIGNNLGTFDWGASNTVEFGYSLPLNAMNGTLTIRTLQADSEITRPPALAAFNIRSESSIYQASFRQPVIRTIREELAFGIGFLMQSAQTFVLGVPAPISPGANASGYSASRVLEFTQEYTRRDTQGAWVFRSQFNFGLPIFGATENPSPIPDGNFFSWLGQGQRLQLLWADNLLILRTDVQLTPNSLLPFHQFVIGGPLSVRGYSTNALSGDNGLRFSGEARFPVLRTANRRPIISIGPLFDLGVVWNHSRNPAGAVPNNVIAGLGMGLLVQPTPNLDLQLQYAAPLIDLPGQTRSLQSDGIYFSLTVRP”, the protein production entry was “failed”. As to “MSQQKSDFADDADIDESLDELASEETIEETVENLEANGFEVIVVNSADDALAELQSLIPAEASVMNGHSTTLEEIGFDEYLSDGDHGWESLPEEIWSIDDDAKRQAARRESQTADYFLGGINGISQTGELVAADRSGSRIGAYPFAASNVVIVSGVNKIVPTLEDALDRLETVAYPLENERAKEAYGVDSAIAKQLILRQELEEGRTTVVLIREHLGYLEHHHHHH”, the protein production result is “not failed”. As to “MRAERGPPKQTISLPVALRKDRDMSEIAPQNRRIRPAAIVVLFLTIALTGCLLALGTWQVQRLFWKLDLIERVDVRAHAEPVDAPAASDWPALGNPSDYEYRRVKLTGTLLNDREVQVYTVTDLGPGYWVMTPLRRDDGSSIIVNRGFVPSDRRDPSSRTGGEPTGNVEIVGLMRAPETGGLFLRTNDPANGRWYSRNIPQITQASGLSDVAPFYVDADATPNPGGLPVGGKTMLTFPNNHLSYAVTWYILAAMVVAAGWYVLRNLNAPKSKRDAD”, the protein production entry is “failed”.

With “EQMTRDEIEYMLSKSEATLDAEEIEMLQGVFSLDEMMAREVMVPRTDAFMIDINDDPLENIQEILKQSFSRIPVYDVDKDKIIGLIHTKRLLESGFRQGFDQINMRKMLQEPLFVPETIFVDDLLRQLRNTQNQMAILLDEYGGVAGLVTLEDLLEEIVGEID”, the protein production result was “failed”.

Turning to “MESESSGLSFPLGLYDAIIAHARSVFPEECCGLVAAPAGGAPIRVIPMENALHSPVRYEMNPKEQFQVQKNLRREGLEMWAIYHSHPVTRPYPSETDIRLAFYPELYYLLTSLAEDPPPLKAYTIQNGVVREIPLKVSPGES”, the protein production result is listed as “failed”. In the case of “MYSKIEGSIITARFDKETDFFTDLVDLCNKYEVKSGTVLWAIGMLKEFQIGYWNGNDYEKETFRERLELVSLHGSIAENDPRFHIHAAGARGNHGIVGGHLFSAKVDPLVEIQIMKITGFSMSRELDNSDGLYKLVIKLEHHHHHH” it was “failed”; in that of “ERLRGVSVEAPTRTGERWNALMDQIVEGVLAWHRIDSHGCVGNVDSTQENDWFSWYQQRVEVLWATLSNMNSPLMTLEDRAVLYRARAALNSLFAGFDDSSVLVHGNLTLRSMLKDPRSDQLLAMLNPGPMLWAPREYDLFRLSEEGMPSQLFYRYLSKAPVSESFVARRWLYTLWELVSRFIHTGNLDRTLFDNAAQQLLPWLE”, “failed”. On to “LHYVHVGNKKSPNTLLFVHGSGCNLKIFGELEKYLEDYNCILLDLKGHGESKGQCPSTVYGYIDNVANFITNSEVTKHQKNITLIGYSMGGAIVLGVALKKLPNVRKVVSLSGGARFDKLDKDFMEKIYHNQLDNNYLLECIGGIDNPLSEKYFETLEKDPDIMINDLIACKLIDLVDNLKNIDIPVKAIVAKDELLTLVEYSEIIKKEVENSELKIFETGKHFLLVVNAKGVAEEIKNFI”, for which the protein production entry is “failed”.
